Ends that are not written are not given here.
Biological target: T1, hERα^CDE, multidomain segment of human estrogen receptor alpha containing both DBD and LBD (residues … (human, UniProt P03372 181-552))
T1 construct: Expressed in E. coli from the pMCSG7 vector; It functions as a homodimer; In the SPR assay it was injected as the complex with ERE-DNA and estradiol; also called hERα^CDE-DNA-E2 complex
T1 sequence: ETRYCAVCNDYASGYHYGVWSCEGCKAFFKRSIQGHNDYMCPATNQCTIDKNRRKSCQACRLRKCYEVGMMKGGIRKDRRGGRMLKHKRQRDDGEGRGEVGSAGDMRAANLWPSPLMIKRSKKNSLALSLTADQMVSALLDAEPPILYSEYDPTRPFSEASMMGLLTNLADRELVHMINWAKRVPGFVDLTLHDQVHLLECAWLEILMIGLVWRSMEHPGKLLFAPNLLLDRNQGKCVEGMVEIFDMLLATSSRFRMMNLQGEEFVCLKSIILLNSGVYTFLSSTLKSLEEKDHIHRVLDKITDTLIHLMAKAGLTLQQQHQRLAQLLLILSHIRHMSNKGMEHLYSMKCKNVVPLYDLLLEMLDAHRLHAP
Experiment: SPR (Biacore T100): biotinylated TIF2 peptide immobilised on an SA chip, hERα^CDE-DNA-E2 complex injected at 0-5 µM, 25° C [panel e]
Description: Measurements were conducted at 25° C. using a Biacore T100 system.

B1: coactivator TIF2 peptide (KENALLRYLLDKDD) (peptide)
peptide: KENALLRYLLDKDD
modifications: also: biotinylated (position not given here)
notes: For SPR the peptide was biotinylated and captured on an SA sensor chip at 10 RUs; also called biotinylated TIF2 peptide
binding result: binds

From patent US20200166530A1 (CASE WESTERN RESERVE UNIVERSITY, published 2020)
